The record followed here is article PMC4449185.

Series [1] in a line: pseudovirus neutralization, global sensitivity (≥2 of 6 non-nAbs). Conditions: glycan lost.
Series [2] is described as follows: pseudovirus neutralization (S4 Table). Conditions: glycan lost; control: JR-FL parent.
Series [3] can be described thus: TZM-bl pseudovirus neutralization ID50. The conditions noted are these: glycan lost.

ADA Env: N197D: the “other: neutralisation sensitivity” value in series [1] (control: ADA parent) is “no change”.

Turning to JR-FL Env (gp160∆CT): N332Q, the “other: neutralisation sensitivity” value in series [2] is given as “no change”. Regarding JR-CSF Env: N197D, the results for the “other: neutralisation sensitivity” value in series [3] (control: JR-CSF parent) and in series [1] (control: JR-CSF parent) were “increases” and “no change”, respectively. With PVO.4 Env: N197D, the “other: neutralisation sensitivity” value in series [3] (control: PVO.4 parent) and in series [1] (control: PVO.4 parent) was “no change” in each case.

Regarding JR-FL Env (gp160∆CT): N160A, the “other: neutralisation sensitivity” value in series [2] was “no change”.
